Laboratory results from patent publication US20050136043A1, “TGFbeta signaling inhibitors” (Ludwig Institute for Cancer Research, priority 2003, published 2005).

Assays:
Assay in all cases: In vitro kinase assay (autophosphorylation) of receptor expressed in COS-7 cells
Format in all cases: biochemical
Conditions in all cases: 10 μM peptide, FIG. 5
BMPR-IA (ALK-3) = target: T1, BMPR-IA (ALK-3) (Homo sapiens, UniProt P36894)
T1 construct: made in house; host or cells: COS-7 cells (transfected, immunoprecipitated)
T1 sequence (P36894 24-532, species assumed): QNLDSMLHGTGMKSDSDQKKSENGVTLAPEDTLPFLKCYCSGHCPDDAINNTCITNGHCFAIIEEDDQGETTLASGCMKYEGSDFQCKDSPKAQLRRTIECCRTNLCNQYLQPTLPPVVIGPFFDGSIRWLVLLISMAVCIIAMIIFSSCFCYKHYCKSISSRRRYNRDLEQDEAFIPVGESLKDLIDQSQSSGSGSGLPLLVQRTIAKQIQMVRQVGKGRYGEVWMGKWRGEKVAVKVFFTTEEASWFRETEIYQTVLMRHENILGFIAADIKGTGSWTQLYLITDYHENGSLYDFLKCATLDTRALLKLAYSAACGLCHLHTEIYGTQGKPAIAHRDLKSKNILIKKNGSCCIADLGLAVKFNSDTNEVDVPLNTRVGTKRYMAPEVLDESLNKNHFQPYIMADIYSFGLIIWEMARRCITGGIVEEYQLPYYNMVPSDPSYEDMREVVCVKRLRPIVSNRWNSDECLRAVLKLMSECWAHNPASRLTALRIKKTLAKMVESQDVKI
Experimental: (§1) For in vitro kinase assay of type I and type II TGFβ family receptors, p38α and SAPKα2 kinases, COS-7 cells were transfected with the kinase expression vectors or the control empty pcDNA3 vector using the DEAE-dextran method. Proteins were extracted in a lysis buffer (50 mM Tris-HCl, pH 7.5, 50 mM NaCl, 1% NP-40, 10 μg/mL aprotinin, 0.1 mM PMSF). HA-tagged proteins (ALK1 to ALK7, p38R, SAPKR2) were immunoprecipitated with anti-HA antibody (12CA5; Roche); His6-tagged proteins (type II receptors) were precipitated with Ni-NTA agarose (Qiagen). The precipitates were washed in extraction buffer, with 20 mM imidazole for Ni-NTA agarose-precipitated proteins, and two times with kinase buffer (20 mM HEPES, pH 7.4, 10 mM MgCl2, 2 mM MnCl2, 1 mM DTT). The kinase reaction was initiated by addition of 20 μL of kinase buffer containing 0.5 μCi of [γ-32P]ATP, 5.0 μM ATP, and inhibitory peptides at a final concentration of 10 μM. The reaction was performed at 22° C. for 20 min and terminated by addition of SDS-containing sample buffer and boiling for 5 min. The reaction products were analyzed by SDS-PAGE and exposure in a Fuji X2000 phosphorimager. Equal loading was controlled by immunoblotting aliquots of the samples with a HA probe (Y-11; Santa Cruz) or anti-His antibody (Qiagen).
(§2) To evaluate whether the substrate-mimicking peptides affect kinases of type I and type II reptors of the TGFβ family, we studied the influence of peptides on authophosphorylation of all known mammalian type I receptors [ALK-1, ActR-I (ALK-2), BMPR-IA (ALK-3), ActR-IB (ALK-4), TβR-I (ALK-5), BMPR-IB (ALK-6), and ALK-7], TβRII, ActR-II, BMPR-II, p38R, and SAPKR2 (FIG. 5). The kinases were expressed in COS-7 cells and purified by using specific anti-tag antibodies or Ni-NTA agarose, and kinase activity was tested in the presence of peptides.

BMPR-IB (ALK-6) = target: T2, BMPR-IB (ALK-6) (Homo sapiens, UniProt O00238)
T2 construct: made in house; host or cells: COS-7 cells (transfected, immunoprecipitated)
T2 sequence (O00238 14-502): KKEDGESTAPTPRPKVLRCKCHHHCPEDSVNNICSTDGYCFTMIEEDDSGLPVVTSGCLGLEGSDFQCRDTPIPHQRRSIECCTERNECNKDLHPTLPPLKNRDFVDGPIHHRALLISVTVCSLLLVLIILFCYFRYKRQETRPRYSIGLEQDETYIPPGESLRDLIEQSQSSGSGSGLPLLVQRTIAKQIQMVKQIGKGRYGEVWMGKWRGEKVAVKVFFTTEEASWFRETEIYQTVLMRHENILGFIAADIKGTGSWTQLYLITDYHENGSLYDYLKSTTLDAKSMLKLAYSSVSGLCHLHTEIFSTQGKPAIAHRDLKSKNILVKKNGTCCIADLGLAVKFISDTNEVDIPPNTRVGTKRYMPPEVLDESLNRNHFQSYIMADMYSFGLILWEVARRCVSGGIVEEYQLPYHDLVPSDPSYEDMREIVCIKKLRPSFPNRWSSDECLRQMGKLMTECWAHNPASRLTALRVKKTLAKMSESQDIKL
Experimental: as §1, §2

ActR-I (ALK-2) = target: T3, ActR-I (ALK-2) (Homo sapiens, UniProt Q04771)
T3 sequence (Q04771 21-509): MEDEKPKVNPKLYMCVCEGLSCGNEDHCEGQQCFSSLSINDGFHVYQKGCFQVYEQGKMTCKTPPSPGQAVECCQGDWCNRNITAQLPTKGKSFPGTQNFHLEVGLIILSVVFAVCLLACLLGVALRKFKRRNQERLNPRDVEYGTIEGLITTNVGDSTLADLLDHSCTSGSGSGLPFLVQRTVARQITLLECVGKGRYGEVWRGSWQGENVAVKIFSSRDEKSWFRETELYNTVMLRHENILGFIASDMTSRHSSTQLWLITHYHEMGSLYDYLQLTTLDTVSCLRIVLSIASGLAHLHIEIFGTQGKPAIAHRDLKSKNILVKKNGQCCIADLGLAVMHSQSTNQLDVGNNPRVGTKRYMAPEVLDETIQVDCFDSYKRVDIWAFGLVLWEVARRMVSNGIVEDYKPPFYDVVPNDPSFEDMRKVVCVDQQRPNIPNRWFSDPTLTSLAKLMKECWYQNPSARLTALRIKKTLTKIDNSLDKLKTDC
Experimental: as §1, §2

BMPR-II = target: T4, BMPR-II (Homo sapiens, UniProt Q13873)
T4 construct: made in house; host or cells: COS-7 cells (transfected, Ni-NTA precipitated)
T4 sequence (Q13873 27-1038): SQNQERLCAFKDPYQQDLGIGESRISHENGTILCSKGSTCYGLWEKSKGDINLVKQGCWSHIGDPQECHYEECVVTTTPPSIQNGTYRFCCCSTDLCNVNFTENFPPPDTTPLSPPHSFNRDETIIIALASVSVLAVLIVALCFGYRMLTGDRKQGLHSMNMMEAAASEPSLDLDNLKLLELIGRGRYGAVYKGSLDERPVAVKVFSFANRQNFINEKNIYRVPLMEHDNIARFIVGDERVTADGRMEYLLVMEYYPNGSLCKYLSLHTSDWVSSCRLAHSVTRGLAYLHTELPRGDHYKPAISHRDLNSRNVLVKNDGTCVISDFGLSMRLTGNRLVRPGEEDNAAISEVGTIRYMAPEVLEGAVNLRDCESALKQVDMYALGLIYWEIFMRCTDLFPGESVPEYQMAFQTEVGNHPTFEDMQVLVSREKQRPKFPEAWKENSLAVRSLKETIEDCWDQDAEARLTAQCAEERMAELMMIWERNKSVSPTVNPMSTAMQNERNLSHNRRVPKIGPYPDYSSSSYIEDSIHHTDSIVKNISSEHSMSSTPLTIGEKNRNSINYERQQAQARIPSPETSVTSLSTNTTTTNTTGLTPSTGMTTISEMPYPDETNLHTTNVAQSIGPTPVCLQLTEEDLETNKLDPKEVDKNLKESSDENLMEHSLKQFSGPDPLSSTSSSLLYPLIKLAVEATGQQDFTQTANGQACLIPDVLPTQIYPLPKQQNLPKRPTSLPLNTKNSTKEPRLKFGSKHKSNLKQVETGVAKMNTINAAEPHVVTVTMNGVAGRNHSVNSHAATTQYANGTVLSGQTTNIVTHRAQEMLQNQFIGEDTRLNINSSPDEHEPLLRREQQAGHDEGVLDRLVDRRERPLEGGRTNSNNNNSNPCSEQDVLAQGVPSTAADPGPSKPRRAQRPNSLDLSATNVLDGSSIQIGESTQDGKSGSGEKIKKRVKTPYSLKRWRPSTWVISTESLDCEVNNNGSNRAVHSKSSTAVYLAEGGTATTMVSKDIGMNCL
Experimental: as §1, §2

RQIKIWFQNRRMKWKKTQMGSPSVRCSAMA (listed as Homo sapiens) [antp-Sm2A]
without any effect: Effect on BMPR-IA (ALK-3) kinase (BMPR-IA (ALK-3)) | Effect on BMPR-IB (ALK-6) kinase (BMPR-IB (ALK-6)) | Effect on ActR-I (ALK-2) kinase (ActR-I (ALK-2)) | Effect on BMPR-II kinase (BMPR-II)

RQIKIWFQNRRMKWKKTQMGSPSVRCSSMS (listed as Homo sapiens) [antp-Sm2S, penetratin fused to the C-terminus of wild-type Smad2]
without any effect: Effect on BMPR-IA (ALK-3) kinase (BMPR-IA (ALK-3)) | Effect on BMPR-IB (ALK-6) kinase (BMPR-IB (ALK-6)) | Effect on ActR-I (ALK-2) kinase (ActR-I (ALK-2)) | Effect on BMPR-II kinase (BMPR-II)
